# Test results as given in patent publication US20230203178A1 (SICHUAN KELUN BIOTECH BIOPHARMACEUTICAL, published 2023).
# B1: TanCAR 05 (other)
# chain: DIVMTQSPLSLPVTPGEPASISCRSSQSLVHSNGNTFLHWYLQKPGQSPQLLIYKVSNRFSGVPDRFSGSGSGTDFTLKISRVEAEDVGVYYCMQSTHVLTFGGGTKLEIKRAGGGGSQVQLVQSGAEVKKPGASVKVSCKASGYTFTDYLMHWVRQAPGQGLEWMGWINTETGEPTYADDFKGRVTMTRDTSTSTVYMELSSLRSEDTAVYYCAPSLYYGYSWFTYWGQGTLVTVSGGGGSGGGGSGGGGSGGGGSQVTLRESGPALVKPTQTLTLTCTFSGVSLPDYGVSWIRQPPGKALEWLAVIWGSETTYYNSALKSRLTISKDTSKNQVVLTMTNMDPVDTATYYCAKHYYYGGSYAMDYWGQGTTVTVSSGGGGSEIVLTQSPATLSLSPGERATLSCRASQDISKYLNWYQQKPGQAPRLLIYHTSRLHSGIPDRFSGSGSGTDFTLTISRLEPEDIAVYYCQQGNTLPYTFGQGTKLEITTTPAPRPPTPAPTIASQPLSLRPEACRPAAGGAVHTRGLDFACDIYIWAPLAGTCGVLLLSLVITLYCKRGRKKLLYIFKQPFMRPVQTTQEEDGCSCRFPEEEEGGCELRVKFSRSADAPAYKQGQNQLYNELNLGRREEYDVLDKRRGRDPEMGGKPRRKNPQEGLYNELQKDKMAEAYSEIGMKGERRRGKGHDGLYQGLSTATKDTYDALHMQALPPR
# notes: Tandem bispecific chimeric antigen receptor on human T cells; built here from its parts without the signal peptide; also called TanCAR 05 CAR-T
# B2: TanCAR 08 (other)
# chain: DIVMTQSPLSLPVTPGEPASISCRSSQSLVHSNGNTFLHWYLQKPGQSPQLLIYKVSNRFSGVPDRFSGSGSGTDFTLKISRVEAEDVGVYYCMQSTHVLTFGGGTKLEIKRAGGGGSGGGGSGGGGSQVQLVQSGAEVKKPGASVKVSCKASGYTFTDYLMHWVRQAPGQGLEWMGWINTETGEPTYADDFKGRVTMTRDTSTSTVYMELSSLRSEDTAVYYCAPSLYYGYSWFTYWGQGTLVTVSGGGGSGGGGSGGGGSGGGGSQVTLRESGPALVKPTQTLTLTCTFSGVSLPDYGVSWIRQPPGKALEWLAVIWGSETTYYNSALKSRLTISKDTSKNQVVLTMTNMDPVDTATYYCAKHYYYGGSYAMDYWGQGTTVTVSSGSTSGSGKPGSGEGSTKGEIVLTQSPATLSLSPGERATLSCRASQDISKYLNWYQQKPGQAPRLLIYHTSRLHSGIPDRFSGSGSGTDFTLTISRLEPEDIAVYYCQQGNTLPYTFGQGTKLEITTTPAPRPPTPAPTIASQPLSLRPEACRPAAGGAVHTRGLDFACDIYIWAPLAGTCGVLLLSLVITLYCKRGRKKLLYIFKQPFMRPVQTTQEEDGCSCRFPEEEEGGCELRVKFSRSADAPAYQQGQNQLYNELNLGRREEYDVLDKRRGRDPEMGGKPRRKNPQEGLYNELQKDKMAEAYSEIGMKGERRRGKGHDGLYQGLSTATKDTYDALHMQALPPR
# notes: Tandem bispecific chimeric antigen receptor on human T cells; built here from its parts without the signal peptide; also called TanCAR 08 CAR-T
# B3: TanCAR 10 (other)
# chain: DIVMTQSPLSLPVTPGEPASISCRSSQSLVHSNGNTFLHWYLQKPGQSPQLLIYKVSNRFSGVPDRFSGSGSGTDFTLKISRVEAEDVGVYYCMQSTHVLTFGGGTKLEIKRAGGGGSGGGGSGGGGSQVQLVQSGAEVKKPGASVKVSCKASGYTFTDYLMHWVRQAPGQGLEWMGWINTETGEPTYADDFKGRVTMTRDTSTSTVYMELSSLRSEDTAVYYCAPSLYYGYSWFTYWGQGTLVTVSGGGGSGGGGSGGGGSGGGGSEVKLQESGPGLVAPSQSLSVTCTVSGVSLPDYGVSWIRQPPRKGLEWLGVIWGSETTYYNSALKSRLTIIKDNSKSQVFLKMNSLQTDDTAIYYCAKHYYYGGSYAMDYWGQGTSVTVSSGSTSGSGKPGSGEGSTKGDIQMTQTTSSLSASLGDRVTISCRASQDISKYLNWYQQKPDGTVKLLIYHTSRLHSGVPSRFSGSGSGTDYSLTISNLEQEDIATYFCQQGNTLPYTFGGGTKLEITESKYGPPCPPCPFWVLVVVGGVLACYSLLVTVAFIIFWVKRGRKKLLYIFKQPFMRPVQTTQEEDGCSCRFPEEEEGGCELRVKFSRSADAPAYKQGQNQLYNELNLGRREEYDVLDKRRGRDPEMGGKPRRKNPQEGLYNELQKDKMAEAYSEIGMKGERRRGKGHDGLYQGLSTATKDTYDALHMQALPPR
# notes: Tandem bispecific chimeric antigen receptor on human T cells; built here from its parts without the signal peptide; also called TanCAR 10 CAR-T
# B4: TanCAR 02 (other)
# chain: DIVMTQSPLSLPVTPGEPASISCRSSQSLVHSNGNTFLHWYLQKPGQSPQLLIYKVSNRFSGVPDRFSGSGSGTDFTLKISRVEAEDVGVYYCMQSTHVLTFGGGTKLEIKRAGGGGSGGGGSGGGGSQVQLVQSGAEVKKPGASVKVSCKASGYTFTDYLMHWVRQAPGQGLEWMGWINTETGEPTYADDFKGRVTMTRDTSTSTVYMELSSLRSEDTAVYYCAPSLYYGYSWFTYWGQGTLVTVSEAAAKEAAAKEAAAKQVTLRESGPALVKPTQTLTLTCTFSGVSLPDYGVSWIRQPPGKALEWLAVIWGSETTYYNSALKSRLTISKDTSKNQVVLTMTNMDPVDTATYYCAKHYYYGGSYAMDYWGQGTTVTVSSGGGGSGGGGSGGGGSEIVLTQSPATLSLSPGERATLSCRASQDISKYLNWYQQKPGQAPRLLIYHTSRLHSGIPDRFSGSGSGTDFTLTISRLEPEDIAVYYCQQGNTLPYTFGQGTKLEITTTPAPRPPTPAPTIASQPLSLRPEACRPAAGGAVHTRGLDFACDIYIWAPLAGTCGVLLLSLVITLYCKRGRKKLLYIFKQPFMRPVQTTQEEDGCSCRFPEEEEGGCELRVKFSRSADAPAYKQGQNQLYNELNLGRREEYDVLDKRRGRDPEMGGKPRRKNPQEGLYNELQKDKMAEAYSEIGMKGERRRGKGHDGLYQGLSTATKDTYDALHMQALPPR
# notes: Tandem bispecific chimeric antigen receptor on human T cells; built here from its parts without the signal peptide; also called TanCAR 02 CAR-T
# B5: TanCAR 06 (other)
# chain: QVTLRESGPALVKPTQTLTLTCTFSGVSLPDYGVSWIRQPPGKALEWLAVIWGSETTYYNSALKSRLTISKDTSKNQVVLTMTNMDPVDTATYYCAKHYYYGGSYAMDYWGQGTTVTVSSGGGGSDIVMTQSPLSLPVTPGEPASISCRSSQSLVHSNGNTFLHWYLQKPGQSPQLLIYKVSNRFSGVPDRFSGSGSGTDFTLKISRVEAEDVGVYYCMQSTHVLTFGGGTKLEIKRAGGGGSGGGGSGGGGSGGGGSQVQLVQSGAEVKKPGASVKVSCKASGYTFTDYLMHWVRQAPGQGLEWMGWINTETGEPTYADDFKGRVTMTRDTSTSTVYMELSSLRSEDTAVYYCAPSLYYGYSWFTYWGQGTLVTVSGGGGSEIVLTQSPATLSLSPGERATLSCRASQDISKYLNWYQQKPGQAPRLLIYHTSRLHSGIPDRFSGSGSGTDFTLTISRLEPEDIAVYYCQQGNTLPYTFGQGTKLEITTTPAPRPPTPAPTIASQPLSLRPEACRPAAGGAVHTRGLDFACDIYIWAPLAGTCGVLLLSLVITLYCKRGRKKLLYIFKQPFMRPVQTTQEEDGCSCRFPEEEEGGCELRVKFSRSADAPAYKQGQNQLYNELNLGRREEYDVLDKRRGRDPEMGGKPRRKNPQEGLYNELQKDKMAEAYSEIGMKGERRRGKGHDGLYQGLSTATKDTYDALHMQALPPR
# notes: Tandem (looped) bispecific chimeric antigen receptor on human T cells; built here from its parts without the signal peptide; also called TanCAR 06 CAR-T
# Target: T1, human CD19 (antigen) (human, UniProt P15391 20-291, limits assumed)
# T1 sequence (looked up): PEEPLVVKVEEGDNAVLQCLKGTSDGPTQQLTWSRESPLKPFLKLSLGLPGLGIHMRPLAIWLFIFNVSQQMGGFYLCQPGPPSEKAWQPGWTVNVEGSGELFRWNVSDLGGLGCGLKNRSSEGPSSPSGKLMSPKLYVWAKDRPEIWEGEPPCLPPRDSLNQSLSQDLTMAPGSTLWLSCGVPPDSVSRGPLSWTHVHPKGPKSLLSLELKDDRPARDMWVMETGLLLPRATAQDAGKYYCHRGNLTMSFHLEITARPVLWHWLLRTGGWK
# Assay: flow cytometry of lentivirus-transduced T cells labelled with antigen or anti-CD19 antibody, 48 h after transduction; percent positive cells
# Excerpt: (§1) The nucleic acid sequence encoding the CAR was expressed under the drive of a promoter, therefore the lentivirus-transfected T cells could be labeled with an antigen or anti-CD19 antibody and measured by flow cytometry, to reflect the expression level of the CAR on the surface of the T cells.
row,Binder,Positive rate of binding to CD19
1,B1,11.8%
2,B2,24.4%
3,B3,34.8%
4,B4,12.7%
5,B5,16.4%

# Target: T2, BCMA expressed on target cells (CHO-K1-BCMA recombinant cell line; MM.1S; RPMI8226) (human, UniProt Q02223 1-184)
# T2 sequence (looked up): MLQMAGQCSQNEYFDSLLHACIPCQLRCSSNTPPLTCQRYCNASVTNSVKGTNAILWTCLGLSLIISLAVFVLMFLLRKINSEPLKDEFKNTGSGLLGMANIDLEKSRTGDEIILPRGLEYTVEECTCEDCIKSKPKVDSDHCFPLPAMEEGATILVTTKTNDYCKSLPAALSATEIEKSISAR
# Assay: cell-based or functional assay
Binder,"lysis rate of CHO-K1-BCMA-luc cells by CAR-T cells, ratio 0.25:1","lysis rate of CHO-K1-BCMA-luc cells by CAR-T cells, ratio 0.5:1","lysis rate of CHO-K1-BCMA-luc cells by CAR-T cells, ratio 1:1","lysis rate of CHO-K1-BCMA-luc cells by CAR-T cells, ratio 2:1"
B1,26.6%,39.2%,58.2%,79.8%
B2,12.3%,38.4%,65.9%,–
B3,17.1%,36%,57.9%,–
B4,24%,35.9%,60.7%,59%
B5,31.9%,48.3%,78.4%,92.9%

# Target: T3, CD19 expressed on Nalm6 cells (UniProt P15391 20-556, limits assumed)
# T3 sequence (looked up): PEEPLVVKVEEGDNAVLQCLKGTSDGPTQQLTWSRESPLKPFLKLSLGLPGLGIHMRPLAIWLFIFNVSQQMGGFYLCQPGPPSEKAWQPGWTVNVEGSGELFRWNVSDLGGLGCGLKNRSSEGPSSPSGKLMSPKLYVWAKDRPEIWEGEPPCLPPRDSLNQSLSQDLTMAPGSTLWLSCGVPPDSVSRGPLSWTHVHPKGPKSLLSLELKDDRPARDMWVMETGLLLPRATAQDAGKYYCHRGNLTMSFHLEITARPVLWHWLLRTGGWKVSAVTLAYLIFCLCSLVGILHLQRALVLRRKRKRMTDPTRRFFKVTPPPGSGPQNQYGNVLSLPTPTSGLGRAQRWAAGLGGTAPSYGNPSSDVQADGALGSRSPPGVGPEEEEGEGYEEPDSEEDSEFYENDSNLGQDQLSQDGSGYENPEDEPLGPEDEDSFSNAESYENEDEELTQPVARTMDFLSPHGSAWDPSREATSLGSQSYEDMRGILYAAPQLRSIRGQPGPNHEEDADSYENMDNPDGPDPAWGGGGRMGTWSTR
# Assay: cell-based or functional assay
Binder,"lysis rate of Nalm6-luc cells by CAR-T cells, ratio 0.25:1","lysis rate of Nalm6-luc cells by CAR-T cells, ratio 0.5:1","lysis rate of Nalm6-luc cells by CAR-T cells, ratio 1:1","lysis rate of Nalm6-luc cells by CAR-T cells, ratio 2:1"
B1,25.8%,42.4%,67.7%,91.2%
B2,65.9%,83.8%,92.2%,–
B3,59.6%,77.4%,91.5%,–
B4,26.1%,49.8%,70.1%,82.4%
B5,68.3%,62.9%,88.9%,95.5%

# Target: T4, human BCMA (antigen) (human, UniProt Q02223 1-54, limits assumed)
# T4 construct: Antigen coupled to the CM5 chip in SPR; also called B-cell maturation antigen; TNFRF17
# T4 sequence (looked up): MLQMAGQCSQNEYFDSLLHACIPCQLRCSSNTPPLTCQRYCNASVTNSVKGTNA
# Assay: flow cytometry of lentivirus-transduced T cells labelled with antigen, 48 h after transduction; percent positive cells
# Excerpt: as §1
row,Binder,Positive rate of binding to BCMA
1,B1,14.2%
2,B2,28.5%
3,B3,39.8%
4,B4,14.1%
5,B5,13.3%
